experiment: soluble on expression in E. coli; label from the status in PepcDB or PDB records

Sequence	soluble on expression in E. coli
MRLKKIGEWLNASPEDQDKQNADLLQTLSKLTGKQLDANALQMLQNLLQAVESKNVSGTDQLLTETEKIFSEAKTALSANDSASDINGALKSDKEQSNQENEVSEPAKELIYIQMFISQLVEGNKLTDLGNGNEAHAIYQNGDQFLSALEKKGVSQQLIQDLKQQIFTKAESSSKLYSMTASELKSFQSLMDQMSMLPQKGTKEWSLAETQLKAFLLSKSSESSQDFGKSVLTPLSQSSSSKNASDVSGSIQPVDSKSGLQMLFSGYRGIGGVQTLDLQQMSSDIPNAETKTVADQVINAWKQMKYTPFGRSTGSFTIRLNPEHLGFVTIKLTNENGMFQSKIIASSQSAKELLEQHLPQLKQSLPNMAVQIDRFTLPVQSGDQPIYGQLADEQKQQQEGQRQQRQKKQSNDFGDLLDEVSMVEMEEEE	soluble
MIFVGNFIQDEKGKGLRIGFVHYRPFDETVGMNLPEETIRQMGALVDEIPEPEQREGKIPVMYYNPETNTVYYEYEDKPLSLEEEIKYLKELNAELIYQLMMKGAL	not soluble
MGELWGNGGGCYSPVPPVMIPFMAYYEKRGDAWRAQIRRKGYPTLSATFDTKAEAQRWAAELEGDMSRARFVDVREAEATSLATALERYESEVTESKKGAKQERVRIKKWMESKFAGKSLASLRSSDMASYRDAEIKAGRSTATVRLDLAVISHLYTVATKDWGIEGLTNPCRALRMPKGSKQRERRPTADELKSLYKAAGEISPELPVIIELAVETAMRRSELVTLRKDQIQGKVAFLEDTKNGERRSVPLSSRARELIEGVPAPIKGGPLFRLKADTVSNYFPLACEKANIQGLRLHDLRHEATSRLFERGFTMMEVASITGHKTLAMLKRYTHLSPQDLAEKLG	not soluble
MLLHLIYGPTCSGKTDMAIQIAQETGWPVVALDRVQCCPQIATGSGRPLESELQSTRRIYLDSRPLTEGILDAESAHRRLIFEVDWRKSEEGLILEGGSISLLNCMAKSPFWRSGFQWHVKRLRLGDSDAFLTRAKQRVAEMFAIREDRPSLLEELAELWNYPAARPILEDIDGYRCAIRFARKHDLAISQLPNIDAGRHVELIEAIANEYLEHALSQERDFPQWPEDGAGQPVCPVTLTRIRGSRSHHHHHH	soluble
MGHHHHHHSHMASSTSLPAPGSRPKKPLGKMADWFRQTLLKKPKKRPNSPESTSSDASQPTSQDNPLPPSLSSVTSPSLPPTHASDSGSSRWSKDYDVCVCHSEEDLVAAQDLVSYLEGSTASLRCFLQLRDATPGGAIVSELCQALSSSHCRVLLITPGFLQDPWCKYQMLQALTEAPGAEGCTIPLLSGLSRAAYPPELRFMYYVDGRGPDGGFRQVKEAVMRCKLLQEGEGERDSATVSDLL	soluble
MGSDKIHHHHHHMMIATFSLSPAGAKRLIARGLINEAVFQQAMTHGRMIIGVGTTNSYIAEELGLLSADEKPRFAAGIVSGGVPCVTAADTRFTSICLENGRIIKDISWEEFIMDFNRDDVFVKGANAFDADGNAGVLLANPRGGTVGGSFGVLAARGCKLLVPVGHEKLIPSCTAAARLMGINRLDYSLGQRCGLALLPAGFAQIYTEIDALKTLFAVEATIVAAGGVSGSEGSVMLAIDGPDEAVKDALALARTLLKEKPLSVPRQSCKDCQASGNCVFKEIPPID	not soluble
MGSDKIHHHHHHVAQDVITQAPLGFGLGLRTQHFDAVLNTEPDIDWFEVLSENYMVAGGKPRYYLKEIGERYPLVMHGVSLSIGSTDPLNMDYLKALKQLANDVQPQWISDHICWTSIHGVNSHDLLPLPYTEETVKHVAQRIKTVQDFLGRRILMENVSSYLSYQDSSMDEWEFVNAVAEAADCLILLDINNIYVSARNHNFNPLDYLNKINPKRVQQFHLAGHSDYGDYVIDTHDHDVPSCVWDLYCAALKRFGGISTMIERDANIPEFYALEAELTIARNIARDTLGKAHPLNAAKNRKNMHEGKVIA	not soluble
QIQLVQSGPELKKPGETVRISCKASDYSFMTSGMQWVQQMPGKGLKWIGWLNTQSGVPEYAEDFKGRFAFSLETSATTAYLQINNLKNEDTATYFCATWGGNSAYWGQGTTLTVSSAKTTPPSVYPLAPGSAAQTNSMVTLGCLVKGYFPEPVTVTWNSGSLSSGVHTFPAVLQSDLYTLSSSVTVPSSTWPSETVTCNVAHPASSTKVDKKIVPRDC	soluble
MGSDKIHHHHHHMPAFIKKELIMKLQGAGLGYRRNLAEDFLQLPSNNAIQFIEVAPENWSKMGGMARYQFDQAAERFPLAVHGLSLSLGGQAPLDRELLRNTKALINQYNSSFFSEHLSYCECEGHLYDLLPMPFTEEAVKHVAQRIRDVQDFLGLQISLENTSYYLHSPTSTMNEVEFLNAIAQEADCGIHLDVNNIYVNGVNHGLLDPYIFLDQVDVKRVNYIHIAGHDEEHSAAQVVENSANESFNKVKGAYRHLPELLIDTHGEAVKGTVWDLLEYAYQRLPTIPPTLLERDFNFPPFAELYAEVEHIAQLQQKYAHTEVMSYAA	not soluble
GRPYKLLNGIKLGVYIPQEWHDRLMEIAKEKNLTLSDVCRLAIKEYLDNHDKQKK	soluble
GSHMASTPDKFNDGNLNIAYAKPTTQSSVDYNGDPNRAVDGNRNGNFNSGSVTHTRADNPSWWEVDLKKMDKVGLVKIYNRTDAETQRLSNFDVILYDNNRNEVAKKHVNNLSGESVSLDFKEKGARYIKVKLLTSGVPLSLAEVEVFRES	soluble
MRIDPFKLAHWMNARKYTAAQTADLAGLPLDDLRRLLGDEANEPDPAAATALAEALSVEPSQLAADAHRNLTVVHKSAEEMHASRRPIQRDGIHFYNYYTLAAPEGRVAPVVLDILCPSDRLPALNNGHLEPAITVNLGPGDINGRWGEEITPQTWRVLHANHGGDRWITGDSYVEPSYCPHSYSLAGDAPARIVSYTAQSNISPLMTEANNWSTGAFEEALKALSGKVSAGSVLDLFLARRAHTRTSAAEAAGVPPADLEAALRSPASETGLTVLRTLGRALGFDYRVLLPADDQHDGVGKTWTTIEDSRRSRRTFGTYEAASMASAAHLPDLVGSFLRVDADGRGADLIDHAENHYVVTEGRLTLEWDGPDGPASVELEPDGSAWTGPFVRHRWHGTGTVLKFGSGAHLGYQDWLELTNTFEPAATLRRGRRDLAGWGYDN	soluble
MSAFQPTIKRRESTKIYVGNVPIGGDAPIAVQSMTNTRTTDVEATVAQIKSLERVGADIVRVSVPTMDAAEAFKQIKQQVNVPLVADIHFDYRIALKVAEYGVDCLRINPGNIGREDRVRAVVDCARDKNIPIRIGVNAGSLEKDLQEKYGEPTPEALLESALRHVEILDRLNFDQFKVSVKASDVFLAVESYRLLAKAIKQPLHLGITEAGGARAGAVKSAVGLGMLLAEGIGDTLRVSLAADPVEEIKVGFDILKSLRIRSRGINFIACPTCSRQEFDVIGTVNALEQRLEDIITPMDVSIIGCVVNGPGEALVSDLGVTGGNKKSGYYLDGERQKERFDNEDIVNQLEAKIRAKVARQDPKNRII	not soluble
MGSDKIHHHHHHMSTVHDEMGVMNTTVKFLHSSDLQIGMTRWFLSDEAQARFDDDRIRAIEKMGKIARKNQCEFIVLAGDVFEHNSLEQRTTGRALEALRSLKLPVYLLPGNHDPLTADSLFYRAKDIDGVTILSDTTVHGVAPGVEIIGAPLLHKMATSDLVAEALKDLEPTSNVRIAVGHGQAEARTTDHRADLIDLNTVEAKLADGTIDYLALGDTHSAQPVGTSGKVWFSGAPETTDFHDLDPDRVGGEVNSGKVLIVSASKGDVSVEEVEVGKWTFHALSKEITSGTDVEDFLDTLQAYPDKSRTVIKYGLRGTITLEQNRRLEEGIAGLEDVFASLKPRERTTDLVLEPGEEELANLDATGYAAEVLRELADSVVNGAAPEEDRDALNLLFRLSREV	not soluble
MSLGSPKSVRIVVVGDKGTGKSSLIVAAATDSFPPNVPPVLPDYKLPIEFFPDGIPVTIVDTSSRPEDRDIVAEELKRADAVVLTYACDRPETLERLSEYWLPELRRLEVKIPIIVAGCKLDFRDDNNQVSLEQVMSPIMQQFREIETCIECSALKQLQAQEVFYYAQKTVLHPTGPLFDQEGHHHHHH	soluble
MFSIFKRKTKQVNPFEQGWLTDLIDIHCHLLPAVDDGSKSIEETLSLIDLLEEIGVKQHILTPHIMEEYPSNDAIFLRARFEELLAAITPDKASRLRLAAEYMLDVAFLDRLAEPLLTLGDR	not soluble
MGSDKIHHHHHHMNIIIIGAQASGKMTIGQEIAKQTGMTLFHNHDSIDFVLRFMPWSPDSIALTESIRFKFFETFAKTGQEMIFTIVIDFNDSRDVVFLEKIQIVFQSHNQEVLFVELETELSERLKRNRTENRLKHKPSKRDIKWSESDICSTMDYAIFNPEVAPEALTYYHKINNTCLTATETAYLIIQKINQIKEKN	not soluble
MSSIVCHPILDSQNGIATDAVIKKQRPPPLVLSRPKDLIQEACQRLVLSDQQLRRIMQSMEKSMEQGLATSTKKVAVKMLPTYVDSVPNGTESGDFLALDLGGTNFRVLHIKLQGKETKMTGKIFRVPESIMRGTGEALFDHIAGCMAKFMGENDLKDAQKLPLGFTFSFPCEQEGLTKGKLVTWTKGFKASGVEGVDVVTLLHEACHRRKDIDIDVVALLNDTVGTLMACAFQENSCQIGVIVGTGTNACYMERLDRIPKLAGYVDEHGVTPEEMIINTEWGAFGDDGALDFLRTEWDEVVDRESINPGQHLYEKMISGMYMGECARVVLEDLAKQGLLFGGNSDAISVPHCFPTKFVSEIDSDLLEDDDRTFQKTYQILEDIGVEMITANDCANVAYVCSLISTRAAHLTAAGIAMLLNRMNKKHVTVGVDGSVYRFHPTYPTLLDAKIGELIVGDIEYKLMLSEDGSGRGAALVAAVATRLKEEKLAASLSSSSSNQ	not soluble
MKELDKIDFRILKILQQNARIPMTELAEKVGLSTTPVTERVRRLEREHYISGYHAHLNPHLLGKPLLVFVELKLQSKSGNIFEDFKKEVLKIPQIMECHLVSGEYDYLIKVRLPDMSAYRDMLGNILLQLPAASESRSYVVMEEVKENPVLDLD	soluble
MGSSHHHHHHSSGLVPRGSHMFLTRRDPPLSSFWTKVQYQRLKELNASGEQLEMGFSDALSRDRAFQGIEHQLMSQGKRHLEQLRTVKHRPALLELEEKLAKALHQQGFVQVVTPTIITKSALAKMTIGEDHPLFSQVFWLDGKKCLRPMLAPNLYTLWRELERLWDKPIRIFEIGTCYRKESQGAQHLNEFTMLNLTELGTPLEERHQRLEDMARWVLEAAGIREFELVTESSVVYGDTVDVMKGDLELASGAMGPHFLDEKWEIFDPWVGLGFGLERLLMIREGTQHVQSMARSLSYLDGVRLNIN	soluble
MANDIDRAGVAKAYARWAPIYDLVFGKVFDSGRQSTIAVADAIGGRVLDVGVGTGLSLSDYSKTTRLCGVDISEPMLRKAHERVRTLNLSNVDVLAVMDAKNLAFPANYFDAVVAQYVITAVPDPEATLDDFIRVLKPGGELILVNHIGAESGPRKLFELAFSPIARRLGWRPEFPWQRLVNWAARHRGVELAERRPMPPMGHFSLIRYRKLLEHHHHHH	not soluble
MRKSRDANPFKAMPNILYPDELMDKAYNRSEKIAGELRTTTRGLSTPKSKIIEDNKIRTTASVISDNLLKIVEKTPSIDNLDPFYREILEIMVGSDEFKKSLAAVQWASEIVKKLGTQYSRKVKKAPSPQATSIVRKEFIGRVSSVLKQIYPNMAFLGVARNKLKNIPTVKNLPSVVIAGYPNVGKSTLLRTLTDAEPEVNSYPFTTKGLNIGYTEEGIQIIDTPGVLDRPIYERNDIELHAVVAINYLSDMILFVIDPTEFCGFTMEEQFNLLQEIRKTFNVPILVALTKMDVDEIEGLDKLEEDLGEYEVLKVSSFKKEGIADLRERLLDILDEQGLMGLLEELEHHHHHH	soluble

Reference: the DeepSol protein solubility set
